Experimental data taken from the supplement of paper PMC12042874.
± gives the uncertainty stated by the source.

experiment: amyloid nucleation score (Sup35N fusion, yeast selection) (log enrichment); library NNK2; higher = more nucleation; inactive = no reads after selection
Method in brief: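 Three technical output replicates were used for random libraries. Psi-negative yeast expressing peptides of 20 random codons fused to Sup35N were induced with 100 μM copper sulfate for 24 hours and grown 7 days at 30°C on medium lacking adenine and uracil, and input and output plasmid inserts were Illumina-sequenced, excluding sequences with under 100 input reads. The nucleation score is the DiMSum log enrichment of output over input reads, centred on the mode score of non-aggregating sequences.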

Row | Substance | amyloid nucleation score
1 | GYCETNFGGCVPDWMEMLQR | 6.67 ± 0.061
2 | GYCLSVTSR | 0.641 ± 0.74
3 | GYDIISQKLGIQSYQKCTFI | -1.86 ± 0.62
4 | GYGSSYLMQARSNRRISVFL | -0.758 ± 0.79
5 | GYLQGLCRG | -0.047 ± 1.1
6 | GYPSARIKSDMYWNPMNVPT | -0.114 ± 0.37
7 | GYRLGHRRGGFGVLNGFYGD | -0.157 ± 0.79
8 | GYVRRSIGYSLLSVVS | -0.121 ± 0.46
9 | GYYGARFLVFKFMVRRWMMT | inactive
10 | GYYRFLSSLLELTV | -0.628 ± 0.76
11 | GYYYLFFILG | 4.78 ± 0.075
12 | HAGMIYILYVNLRRTSKRMG | 3.86 ± 0.072
13 | HAKTWM | 0.066 ± 1
14 | HARVKLVIILLTLREGGMFW | -0.108 ± 0.62
15 | HAYFFLRDRVRCSIFVIVTT | -0.453 ± 0.78
16 | HAYSWNNRPVGVVRSRSRLF | -0.597 ± 0.34
17 | HAYYHLILDVLFPDGLWL | -0.938 ± 0.36
18 | HCFALGR | 0.088 ± 0.21
19 | HCGFDQVLEGLTLR | 0.097 ± 0.42
20 | HCKSDPWLEPTSVWVFIRLV | 0.818 ± 0.23
21 | HCLGVFARFWIWVGPDGLVI | -1.2 ± 0.78
22 | HCLIMGDNDGTLRTLGGR | -0.104 ± 0.65

Row | Substance | amyloid nucleation score
23 | HCRYWVCCQLLVILTYSEAF | inactive
24 | HCSCVKNSTSTDIEE | inactive
25 | HDYGLCTGVDIWITLSCCDR | 9.637 ± 0.029
26 | HDYVLFISECHKLLGAS | inactive
27 | HDYYMSVSLMGWY | -1.02 ± 0.34
28 | HEGNKRARYLALLSEIYFQW | 4.65 ± 0.084
29 | HERGTNVLYTLVEWGARAVS | 1.16 ± 0.49
30 | HESHHSALFDCLGWQVLVWL | 6.827 ± 0.049
31 | HFITCFLDRHGALVCYCSES | 4.76 ± 0.11
32 | HFSYKPVEYPLFSRFKPVFN | -0.025 ± 0.79
33 | HFWCLRCDTIHDSFNYSVVQ | 7.373 ± 0.055
34 | HGDNFSEVATTFNCMMLLNV | -0.243 ± 1.1
35 | HGDVIRCRTKIIIAVFGMFM | 6.21 ± 0.076
36 | HGGFGYR | -0.336 ± 0.49
37 | HGSQRFDFWGGYRYW | 0.83 ± 0.13
38 | HHFNCCTGNFYIYKLDDSLI | 5.485 ± 0.048
39 | HHIGGMIS | -0.09 ± 0.3
40 | HHWRGALGFVCWGRFEERWV | -0.567 ± 0.23
41 | HIAID | 0.401 ± 0.56
42 | HIFFTDKFGGYVFLYPDFVA | inactive
43 | HIKDNQSSSV | 0.196 ± 0.44
44 | HILICFWRVQVLKSACLYWT | 1.74 ± 0.11

Row | Substance | amyloid nucleation score
45 | HILRRINIWGGFPCMRVSKN | -0.755 ± 1.1
46 | HIMSIDVPSNLSLQFIMVGY | 0.306 ± 0.64
47 | HLCHLLRSEHCRNGGSEKSR | 1.61 ± 0.29
48 | HLDYAGYIGDRSHTDFASGR | 0.519 ± 0.46
49 | HLEMRPAMRIPLLRTDFWKV | 0.665 ± 0.19
50 | HLGHKKVRWDMSAELWQ | 2.75 ± 0.1
51 | HLGVGFLWSVRFIYMTFGFS | inactive
52 | HLTVFVDLSVRLRQMYRRYS | 5.56 ± 0.069
53 | HLWGTKFMAFVARFV | -0.12 ± 0.79
54 | HLWVWFRYSSRSFSHMLGDC | 2.92 ± 0.15
55 | HLYLEYGNVTWGWVMVLIVG | inactive
56 | HLYMH | 1.62 ± 0.18
57 | HMSCMSLSVIFDIILNLCSL | 6.097 ± 0.06
58 | HMYVGHGLNVFAYISMLGVY | inactive
59 | HNGSNFGTWSQGSLRHVRAR | -0.023 ± 0.31
60 | HNVGILWSSCCSRMYIAYAY | -0.288 ± 1
61 | HNVVRGFCLVFTIYHSGRTR | 5.1 ± 0.082
62 | HPDDTMKFSSRTHITTQTDR | 0.908 ± 0.52
63 | HQVFPAKAGLPALVYLLGFY | 0.602 ± 0.81
64 | HRAWSSVCSKYSSTGTRNLI | 2.99 ± 0.14
65 | HRFSGVVIYNINRSSTIGN | 7.328 ± 0.04
66 | HRFSLRNHCRSFSSGHLVHN | -1.24 ± 0.75

Row | Substance | amyloid nucleation score
67 | HRRVVAPNKCWMSLACFWDL | 4.33 ± 0.053
68 | HSAMFLYTKHVSPPGSWRVL | 1.6 ± 0.13
69 | HSDMFRKIQVLILSVERQNE | inactive
70 | HSFPRCNSVHWPDDIGGCDG | 4.58 ± 0.047
71 | HSFTTMFWNSAMY | 4.11 ± 0.062
72 | HSLLGPGPVPSYPQFSSPGR | inactive
73 | HSLSWKCV | 0.346 ± 0.74
74 | HSLVS | -0.266 ± 1
75 | HSNPYRKLIQLTMTGITGTV | 0.033 ± 0.48
76 | HTAMCAVSGFRNIWSKPVKF | -0.817 ± 1.1
77 | HTITNTL | -0.06 ± 1.1
78 | HTQSLVRVCWIYIRLPRSTP | 0.393 ± 0.2
79 | HTSMWFL | -0.145 ± 1.1
80 | HVLHCTYSQSSMEQLFCFNW | inactive
81 | HVYFSCAYWQPVYMYCCGKQ | 7.771 ± 0.059
82 | HWKAFYL | 1.13 ± 0.59
83 | HWKVENRLNSMEWKSMGGQN | 3.97 ± 0.053
84 | HWLTKISGTTPELYPRERVV | 0.071 ± 0.25
85 | HWSLGSYFGYNFGR | 5.67 ± 0.062
